Results reported in the supplement of paper PMC9233669.
Variants at the floor of the assay were thinned out.

How the values were obtained:
biotinyl-Met-oxazolone = experiment: self-aminoacylation, catalytic enhancement (BMO) (fold over background); higher = more active; k-Seq, kA / k0A0; sequences stand for … in GGGAAUGGAUCCACAUCUACGAAUUC…UUCACUGCAGACUUGACGAAGCUG
Procedure, shortened: (§1)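 Each biotinyl-aminoacyl-oxazolone, at 2–1250 μM, was incubated with mutagenized RNA pools (0.43 μM) carrying a 21-nt variable region. The 50 μL reactions contained HEPES/NaCl/KCl/MgCl2/CaCl2 buffer with 5% acetonitrile at pH 6.9–7.0 and ran for 90 minutes at room temperature. After streptavidin capture, RNA was measured by qPCR in triplicate and by Illumina sequencing, and catalytic enhancement was calculated as median kA over the uncatalyzed rate from a pseudo-first-order fit of per-sequence fraction reacted.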

biotinyl-Trp-oxazolone = experiment: self-aminoacylation, catalytic enhancement (BWO) (fold over background); higher = more active; k-Seq, kA / k0A0; sequences stand for … in GGGAAUGGAUCCACAUCUACGAAUUC…UUCACUGCAGACUUGACGAAGCUG
Procedure, shortened: as §1

biotinyl-Ile-oxazolone = experiment: self-aminoacylation, catalytic enhancement (BIO) (fold over background); higher = more active; k-Seq, kA / k0A0; sequences stand for … in GGGAAUGGAUCCACAUCUACGAAUUC…UUCACUGCAGACUUGACGAAGCUG
Procedure, shortened: as §1

biotinyl-Leu-oxazolone = experiment: self-aminoacylation, catalytic enhancement (BLO) (fold over background); higher = more active; k-Seq, kA / k0A0; sequences stand for … in GGGAAUGGAUCCACAUCUACGAAUUC…UUCACUGCAGACUUGACGAAGCUG
Procedure, shortened: as §1

biotinyl-Val-oxazolone = experiment: self-aminoacylation, catalytic enhancement (BVO) (fold over background); higher = more active; k-Seq, kA / k0A0; sequences stand for … in GGGAAUGGAUCCACAUCUACGAAUUC…UUCACUGCAGACUUGACGAAGCUG
Procedure, shortened: as §1

biotinyl-Phe-oxazolone = experiment: self-aminoacylation, catalytic enhancement (BFO) (fold over background); higher = more active; k-Seq, kA / k0A0; sequences stand for … in GGGAAUGGAUCCACAUCUACGAAUUC…UUCACUGCAGACUUGACGAAGCUG
Procedure, shortened: as §1

“CCACACUUCAAGCCAUAGGUC [Fam1B.1 aminoacylation ribozyme variant]” showed a self-aminoacylation (biotinyl-Met-oxazolone) of 0.622, a self-aminoacylation (biotinyl-Trp-oxazolone) of 0.633 and a self-aminoacylation (biotinyl-Ile-oxazolone) of 0.812. The self-aminoacylation (biotinyl-Leu-oxazolone) was 0.632, the self-aminoacylation (biotinyl-Val-oxazolone) was 0.688 and the self-aminoacylation (biotinyl-Phe-oxazolone) was 0.805.

“CUACUUCAAACAUUCAGUCUG [Fam1A.1 aminoacylation ribozyme variant]” showed a self-aminoacylation (biotinyl-Met-oxazolone) of 0.734, a self-aminoacylation (biotinyl-Trp-oxazolone) of 0.602 and a self-aminoacylation (biotinyl-Ile-oxazolone) of 1.04. For the same sequence, the self-aminoacylation (biotinyl-Leu-oxazolone) was 0.741, the self-aminoacylation (biotinyl-Val-oxazolone) was 0.812 and the self-aminoacylation (biotinyl-Phe-oxazolone) was 0.971.

“GUUCACCUAGGUCAUCGGGCG [Fam2.2 aminoacylation ribozyme variant]” gave a self-aminoacylation (biotinyl-Met-oxazolone) of 4.01, a self-aminoacylation (biotinyl-Trp-oxazolone) of 4.17 and a self-aminoacylation (biotinyl-Ile-oxazolone) of 2.98. For the same sequence, the self-aminoacylation (biotinyl-Leu-oxazolone) was 5.06, the self-aminoacylation (biotinyl-Val-oxazolone) was 3.11 and the self-aminoacylation (biotinyl-Phe-oxazolone) was 4.6.

Sequence “CUACUUCAACCAAUCGGUCCG [Fam1A.1 aminoacylation ribozyme variant]” has a self-aminoacylation (biotinyl-Met-oxazolone) of 1.26, a self-aminoacylation (biotinyl-Trp-oxazolone) of 5.57 and a self-aminoacylation (biotinyl-Ile-oxazolone) of 0.867. For the same sequence, the self-aminoacylation (biotinyl-Leu-oxazolone) was 1.22, the self-aminoacylation (biotinyl-Val-oxazolone) was 0.799 and the self-aminoacylation (biotinyl-Phe-oxazolone) was 6.1.

In the case of “CCACGCUUUAAGCAAUCGGUC [Fam1B.1 aminoacylation ribozyme variant]”, the self-aminoacylation (biotinyl-Met-oxazolone) is reported as 0.713, the self-aminoacylation (biotinyl-Trp-oxazolone) is reported as 0.998 and the self-aminoacylation (biotinyl-Ile-oxazolone) is reported as 0.737. The self-aminoacylation (biotinyl-Leu-oxazolone) was 0.682, the self-aminoacylation (biotinyl-Val-oxazolone) was 0.787 and the self-aminoacylation (biotinyl-Phe-oxazolone) was 1.27.

With “AAGUUUGCUAAUAGGCGCAGG [Fam3.1 aminoacylation ribozyme variant]” the self-aminoacylation (biotinyl-Met-oxazolone) was 0.67, the self-aminoacylation (biotinyl-Trp-oxazolone) was 1.18 and the self-aminoacylation (biotinyl-Ile-oxazolone) was 0.831. The self-aminoacylation (biotinyl-Leu-oxazolone) was 0.907, the self-aminoacylation (biotinyl-Val-oxazolone) was 0.965 and the self-aminoacylation (biotinyl-Phe-oxazolone) was 0.997.

Sequence “CUACUUCAAACCAUCGGUGUG [Fam1A.1 aminoacylation ribozyme variant]” has a self-aminoacylation (biotinyl-Met-oxazolone) of 1.11, a self-aminoacylation (biotinyl-Trp-oxazolone) of 0.938 and a self-aminoacylation (biotinyl-Ile-oxazolone) of 1.08. For the same sequence, the self-aminoacylation (biotinyl-Leu-oxazolone) was 1.52, the self-aminoacylation (biotinyl-Val-oxazolone) was 1.1 and the self-aminoacylation (biotinyl-Phe-oxazolone) was 1.24.

“CCACACUUGAAGCAAUAGGUC [Fam1B.1 aminoacylation ribozyme variant]” gave a self-aminoacylation (biotinyl-Met-oxazolone) of 0.509, a self-aminoacylation (biotinyl-Trp-oxazolone) of 0.438 and a self-aminoacylation (biotinyl-Ile-oxazolone) of 0.563. The self-aminoacylation (biotinyl-Leu-oxazolone) was 0.471, the self-aminoacylation (biotinyl-Val-oxazolone) was 0.513 and the self-aminoacylation (biotinyl-Phe-oxazolone) was 0.578.

“AUCAACCUGGUCAUCGAGUGA [Fam2.1 aminoacylation ribozyme variant]” gave a self-aminoacylation (biotinyl-Met-oxazolone) of 10, a self-aminoacylation (biotinyl-Trp-oxazolone) of 9.87 and a self-aminoacylation (biotinyl-Ile-oxazolone) of 5.12. The self-aminoacylation (biotinyl-Leu-oxazolone) was 11.9, the self-aminoacylation (biotinyl-Val-oxazolone) was 4.81 and the self-aminoacylation (biotinyl-Phe-oxazolone) was 43.5.

Work on “AUUACCCUGGUCAUCGAAUGC [Fam2.1 aminoacylation ribozyme variant]” yielded a self-aminoacylation (biotinyl-Met-oxazolone) of 0.827, a self-aminoacylation (biotinyl-Trp-oxazolone) of 0.726 and a self-aminoacylation (biotinyl-Ile-oxazolone) of 1.04. For the same sequence, the self-aminoacylation (biotinyl-Leu-oxazolone) was 0.723, the self-aminoacylation (biotinyl-Val-oxazolone) was 0.68 and the self-aminoacylation (biotinyl-Phe-oxazolone) was 0.567.

In the case of “AUGACCCUGGUCAUCGAGUAA [Fam2.1 aminoacylation ribozyme variant]”, the self-aminoacylation (biotinyl-Met-oxazolone) is reported as 10.1, the self-aminoacylation (biotinyl-Trp-oxazolone) is reported as 8.31 and the self-aminoacylation (biotinyl-Ile-oxazolone) is reported as 3.71. The self-aminoacylation (biotinyl-Leu-oxazolone) was 10.2, the self-aminoacylation (biotinyl-Val-oxazolone) was 3.51 and the self-aminoacylation (biotinyl-Phe-oxazolone) was 31.5.

With “CUAUUUCAAACAAUCGGUCGG [Fam1A.1 aminoacylation ribozyme variant]” the self-aminoacylation (biotinyl-Met-oxazolone) was 0.793, the self-aminoacylation (biotinyl-Trp-oxazolone) was 1.9 and the self-aminoacylation (biotinyl-Ile-oxazolone) was 0.851. The self-aminoacylation (biotinyl-Leu-oxazolone) was 0.92, the self-aminoacylation (biotinyl-Val-oxazolone) was 0.868 and the self-aminoacylation (biotinyl-Phe-oxazolone) was 2.12.

“CCACACUUCAAUCAAUCGUUC [Fam1B.1 aminoacylation ribozyme variant]” was tested, and the self-aminoacylation (biotinyl-Met-oxazolone) was 0.423, the self-aminoacylation (biotinyl-Trp-oxazolone) was 0.469 and the self-aminoacylation (biotinyl-Ile-oxazolone) was 0.622. The self-aminoacylation (biotinyl-Leu-oxazolone) was 0.506, the self-aminoacylation (biotinyl-Val-oxazolone) was 0.607 and the self-aminoacylation (biotinyl-Phe-oxazolone) was 1.04.

Work on “GUUACCCUUGUCAUCGAGUGA [Fam2.1 aminoacylation ribozyme variant]” yielded a self-aminoacylation (biotinyl-Met-oxazolone) of 8.39, a self-aminoacylation (biotinyl-Trp-oxazolone) of 10.7 and a self-aminoacylation (biotinyl-Ile-oxazolone) of 4.41. It also gave a self-aminoacylation (biotinyl-Leu-oxazolone) of 8.14, a self-aminoacylation (biotinyl-Val-oxazolone) of 4.44 and a self-aminoacylation (biotinyl-Phe-oxazolone) of 48.1.

With “AAGUAUUCUAAUAGUCGCAAG [Fam3.1 aminoacylation ribozyme variant]” the self-aminoacylation (biotinyl-Met-oxazolone) was 1.58, the self-aminoacylation (biotinyl-Trp-oxazolone) was 1.83 and the self-aminoacylation (biotinyl-Ile-oxazolone) was 1.61. The self-aminoacylation (biotinyl-Leu-oxazolone) was 1.71, the self-aminoacylation (biotinyl-Val-oxazolone) was 1.6 and the self-aminoacylation (biotinyl-Phe-oxazolone) was 7.07.

“AUUACGCUAGUCAUCGAGUGA [Fam2.1 aminoacylation ribozyme variant]” showed a self-aminoacylation (biotinyl-Met-oxazolone) of 3.01, a self-aminoacylation (biotinyl-Trp-oxazolone) of 3.63 and a self-aminoacylation (biotinyl-Ile-oxazolone) of 2.48. The self-aminoacylation (biotinyl-Leu-oxazolone) was 3.48, the self-aminoacylation (biotinyl-Val-oxazolone) was 2.47 and the self-aminoacylation (biotinyl-Phe-oxazolone) was 2.19.

“CCACACUUCAUGCAAUAGGUC [Fam1B.1 aminoacylation ribozyme variant]” was tested, and the self-aminoacylation (biotinyl-Met-oxazolone) was 0.582, the self-aminoacylation (biotinyl-Trp-oxazolone) was 0.467 and the self-aminoacylation (biotinyl-Ile-oxazolone) was 0.711. It also gave a self-aminoacylation (biotinyl-Leu-oxazolone) of 0.637, a self-aminoacylation (biotinyl-Val-oxazolone) of 0.834 and a self-aminoacylation (biotinyl-Phe-oxazolone) of 1.03.

Work on “AAAUUUGCUAAUAGUCGCAUG [Fam3.1 aminoacylation ribozyme variant]” yielded a self-aminoacylation (biotinyl-Met-oxazolone) of 2.13, a self-aminoacylation (biotinyl-Trp-oxazolone) of 3.67 and a self-aminoacylation (biotinyl-Ile-oxazolone) of 2.28. For the same sequence, the self-aminoacylation (biotinyl-Leu-oxazolone) was 2.81, the self-aminoacylation (biotinyl-Val-oxazolone) was 1.8 and the self-aminoacylation (biotinyl-Phe-oxazolone) was 2.04.

With “CCACACUUCAAGCAAGUGGUC [Fam1B.1 aminoacylation ribozyme variant]” the self-aminoacylation (biotinyl-Met-oxazolone) was 0.43, the self-aminoacylation (biotinyl-Trp-oxazolone) was 0.536 and the self-aminoacylation (biotinyl-Ile-oxazolone) was 0.441. For the same sequence, the self-aminoacylation (biotinyl-Leu-oxazolone) was 0.449, the self-aminoacylation (biotinyl-Val-oxazolone) was 0.611 and the self-aminoacylation (biotinyl-Phe-oxazolone) was 0.777.

Sequence “AUUACCCGGGUCAUCUAGUGA [Fam2.1 aminoacylation ribozyme variant]” has a self-aminoacylation (biotinyl-Met-oxazolone) of 9.33, a self-aminoacylation (biotinyl-Trp-oxazolone) of 11.2 and a self-aminoacylation (biotinyl-Ile-oxazolone) of 4.46. For the same sequence, the self-aminoacylation (biotinyl-Leu-oxazolone) was 11, the self-aminoacylation (biotinyl-Val-oxazolone) was 5.08 and the self-aminoacylation (biotinyl-Phe-oxazolone) was 70.8.

Sequence “AUUAUCCUGGUCAUCUAGUGA [Fam2.1 aminoacylation ribozyme variant]” has a self-aminoacylation (biotinyl-Met-oxazolone) of 10.6, a self-aminoacylation (biotinyl-Trp-oxazolone) of 13.2 and a self-aminoacylation (biotinyl-Ile-oxazolone) of 4.87. The self-aminoacylation (biotinyl-Leu-oxazolone) was 10.8, the self-aminoacylation (biotinyl-Val-oxazolone) was 4.98 and the self-aminoacylation (biotinyl-Phe-oxazolone) was 77.8.

Sequence “AUUACCCUCAUCAUCGAGUGA [Fam2.1 aminoacylation ribozyme variant]” has a self-aminoacylation (biotinyl-Met-oxazolone) of 10.5, a self-aminoacylation (biotinyl-Trp-oxazolone) of 11.9 and a self-aminoacylation (biotinyl-Ile-oxazolone) of 4.69. For the same sequence, the self-aminoacylation (biotinyl-Leu-oxazolone) was 10.7, the self-aminoacylation (biotinyl-Val-oxazolone) was 5.02 and the self-aminoacylation (biotinyl-Phe-oxazolone) was 74.1.

With “AAGAUUGCUAAUAGUCGGAAG [Fam3.1 aminoacylation ribozyme variant]” the self-aminoacylation (biotinyl-Met-oxazolone) was 0.909, the self-aminoacylation (biotinyl-Trp-oxazolone) was 1.54 and the self-aminoacylation (biotinyl-Ile-oxazolone) was 1.4. For the same sequence, the self-aminoacylation (biotinyl-Leu-oxazolone) was 0.837, the self-aminoacylation (biotinyl-Val-oxazolone) was 1.22 and the self-aminoacylation (biotinyl-Phe-oxazolone) was 1.84.

Work on “AUUAACCUGGUCAUCGAGGGA [Fam2.1 aminoacylation ribozyme variant]” yielded a self-aminoacylation (biotinyl-Met-oxazolone) of 1.76, a self-aminoacylation (biotinyl-Trp-oxazolone) of 1.99 and a self-aminoacylation (biotinyl-Ile-oxazolone) of 1.53. The self-aminoacylation (biotinyl-Leu-oxazolone) was 1.28, the self-aminoacylation (biotinyl-Val-oxazolone) was 1.3 and the self-aminoacylation (biotinyl-Phe-oxazolone) was 0.771.

In the case of “AUUCACCGGGGUCAUCGGGUG [Fam2.2 aminoacylation ribozyme variant]”, the self-aminoacylation (biotinyl-Met-oxazolone) is reported as 8.15, the self-aminoacylation (biotinyl-Trp-oxazolone) is reported as 9.14 and the self-aminoacylation (biotinyl-Ile-oxazolone) is reported as 6.47. For the same sequence, the self-aminoacylation (biotinyl-Leu-oxazolone) was 10.7, the self-aminoacylation (biotinyl-Val-oxazolone) was 7.4 and the self-aminoacylation (biotinyl-Phe-oxazolone) was 80.5.

Work on “AUGCACCUAGGUUAUCGGGUG [Fam2.2 aminoacylation ribozyme variant]” yielded a self-aminoacylation (biotinyl-Met-oxazolone) of 3.37, a self-aminoacylation (biotinyl-Trp-oxazolone) of 4.81 and a self-aminoacylation (biotinyl-Ile-oxazolone) of 3.4. It also gave a self-aminoacylation (biotinyl-Leu-oxazolone) of 4.46, a self-aminoacylation (biotinyl-Val-oxazolone) of 3.11 and a self-aminoacylation (biotinyl-Phe-oxazolone) of 32.7.
